Data on 40 sequences can be found in the nanobody polyreactivity screen of Harvey et al. (2022).

The nature of this data set: yeast display, Sf9 membrane polyspecificity reagent, FACS + sequencing; frameworks hold sequencing errors. Put shortly:
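Using colony PCR, genes from sorted yeast display clones were amplified, then sequenced on MiSeq at 2 × 250 and filtered by CDR length. The clones had been stained with 10% biotinylated, detergent-solubilized Sf9 membrane reagent for 1 hour at 4 °C and sorted by FACS into low and high (top ~1%) gates on anti-HA and streptavidin fluorescence. Polyreactivity labels come from the gate of origin.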
On to “QVQLVESGGGLVQAGGSLRLSCAASGFTFTYYAMGSYRQAPGKERELVAAITSRGGTTYYADSVKGRFTISRDNAKNTVYLQMNSLKPEDTAVYYCNARHSYWTGRRVTDDYDYWGQGTQVTVSS”, for which the “polyreactivity (PSR sort gate)” value was “high polyreactivity”.
The result for “QVQLVESGGGLVQAGGSLRLSCAASGFTFTYYAMGWYRQAPGKERELVAAITRRGGRTYYADSVKGRFTISRDNAKNTVYLQMNSLKPEDTAVYYCNADEYGGSTGRKGRYNYWGQGTQVTVSS” reads “low polyreactivity”; that for “QVQLVESGGGLVQAGGSLRLSCAASGFTFTYYAMGWYRQAPGKERELVAVISSAGSTYNADSVKGRFTISRDNAKNTVYLQMNSLKPEDTAVYYCNAVGRYYSSGRYGHWGQGTQVTVSS”, “high polyreactivity”.
For “QVQLVESGGGLVQAGGSLRLSCAASGFTFTYYDMGWYRQAPGKERELDAAISWSGDYTYYADSVKGRFTISRDNAKNTVYLQMNSLKPEDTAVYYCAALWDVRGYWSSGGYYWGQGTQVTVSS” the value was “high polyreactivity”; for “QVQLVESGGGLVQAGGSLRLSCAASGFTFTYYDMGWYRQAPGKERELVAAISRSGGRTYYADSVKGRFTISRDNAKNTVYLQMNSLKPEDTAVYYCAARRVDTRVHVRYRYYYWGQGTQVTVSS”, “high polyreactivity”; for “QVQLVESGGGLVQAGGSLRLSCAASGFTFTYYVMGWYRQAPGKERELVAAITSSGGRTYYADSVKGRFTISRDNAKNTVYLQMNSLKPEDTAVYYCNKGPLPGYDYWGQGTQVTVSS”, “high polyreactivity”.
For “QVQLVESGGGLVQAGGSLRLSCAASGFTFVAYAMGWYRQAPGKERELVAAISKSGGSTYYADSVKGRFTISRDNAKNSVYLQMNRLKPEDTAVYYCAARYYAYRSDYWGQGTQVTVSS” the value was “high polyreactivity”.
Take “QVQLVESGGGLVQAGGSLRLSCAASGFTFVDNAMGWYRQAPGKERELVAVIDFNDGTTYYADSVKGRFTISRDNAKNTVYLLMNSLKPEDTEVYYCNVDSSLILWVEYDYWGQGTQVTVSS”: the “polyreactivity (PSR sort gate)” value was “low polyreactivity”.
For “QVQLVESGGGLVQAGGSLRLSCAASGFTFVFYAMGWYRQAPGKERELVAAINSGGSTYYADSVKGRFTISRDIAKNTDYLQMNSLKPEDTAVYYCAKGSYGPSAGYGRRYYYWGQGTQVTVSS” the value was “high polyreactivity”; for “QVQLVESGGGLVQAGGSLRLSCAASGFTFVIHDMGWYRQAPGKERELVADITSGGDTYYADSVKGRFTISRDNAKNTVYLQMNSQKPEDTAVYYCAADIYPDWIYLLYGYWGQGTQGTVSS”, “low polyreactivity”; for “QVQLVESGGGLVQAGGSLRLSCAASGFTFVINYMGWYRQAPGKERELVADITSGGDTYYADSVKGRFTISRDNAKNTVYLQMNSLNPEDTAVYYCAADIYPDWIYLLYGYWGQVTQVTVSS”, “low polyreactivity”.
The result for “QVQLVESGGGLVQAGGSLRLSCAASGFTFVNYAMGWYRQAPGKERELVAAISSGGRTYYADSVKGRFTISRDNAKNTVYLQMNSLKPEDTAVYYCAARYKGRAIWMDYWGQGTQVTVSS” reads “high polyreactivity”.
For “QVQLVESGGGLVQAGGSLRLSCAASGFTFVNYARGWYRQAPGKERELVAAIRRSGSRTYYADSVKGRFTISRDNAKNTVYLQMHSLKPEDTAVYYCAAVWYRLYGYWGQGTQVTVSS”, the “polyreactivity (PSR sort gate)” value is listed as “low polyreactivity”.
The result for “QVQLVESGGGLVQAGGSLRLSCAASGFTFVPYARGWYRQAPGKDREWVAAISRRGGSTYYADSVKGRFTISRDYAKNTVYLQMNSLKPEDTAVYYCAKDGPGGGTRIYDYWGQGTQVTVSS” reads “high polyreactivity”.
For “QVQLVESGGGLVQAGGSLRLSCAASGFTFVQYAMGWYRQAPGKERELVATISKSGGITYYADSVKGRFTISRDNAKNTVYLQMNSLKPEDNAVYYCAAAWYYSSRGFHATWGHDYWGQGTQVTVSS” the value was “low polyreactivity”.
The result for “QVQLVESGGGLVQAGGSLRLSCAASGFTFVRYAMGWYRQAPGKERELVAAISRGGGRTSYADSVKGRFTISRDNAKNTVYLQMNSLKPEDTAVYYCATGTYAAAQGTRYYYLGQGTQVTVSS” reads “high polyreactivity”.
As for “QVQLVESGGGLVQAGGSLRLSCAASGFTFVRYAMGWYTQAPGKERELDAAITRGGGSTYYADSVKGRFTISRDYAKNTVYLQMNSLKPEDTAVYYCAKGPGRPVSYEIPYKYNYWGQGTHVTVSS”, the “polyreactivity (PSR sort gate)” value is given as “high polyreactivity”.
For “QVQLVESGGGLVQAGGSLRLSCAASGFTFVRYTMGWYRQAPGKERELVAAITSGGSTTYADSVKGRFTISRDNAKNTVYLQMNSLKPEDTAVYYCNAVFYLQYETGRELDYWGQGTQVTVSS” the value was “high polyreactivity”.
For “QVQLVESGGGLVQAGGSLRLSCAASGFTFVSNAMGWYRQAPGKEREMVADITSDGSTNYADSVKGRFTISRDNAKNTVSLQMNSLKPEDTAVYYCNADASYGFWSLLHYDYWGQATQVTVSS” the value was “low polyreactivity”; for “QVQLVESGGGLVQAGGSLRLSCAASGFTFVSYTMGWYRQAPGKERELVAVITKRGGSTYYADSVKGRFTISRDNAKNTVYLQLNCLKPEDTAVYYCNAVQAYKSPSLPLAGGNYWGQGTQVTVSS”, “high polyreactivity”.
For “QVQLVESGGGLVQAGGSLRLSCAASGFTFVYNAMGWYRQAPGKERELVAAITSGGNTYYADSVKGRFTISRDNAKNTVYLQMNSLKPEDTAVYYCAKRGYGRYYAYDYWGQGTQVTVSS” the value was “high polyreactivity”; for “QVQLVESGGGLVQAGGSLRLSCAASGFTFVYYDMGWYRQAPGKERELVAAISRSGGSTYYADSVKGRFTISRDNAQNTVYLQMNSLKPEDTAVYYCAAGKNYGSRLSYEYWGQGTQVTVSS”, “high polyreactivity”.
Turning to “QVQLVESGGGLVQAGGSLRLSCAASGFTFVYYVMGWYRQAPGKERELVAAITRRGGNTYYADSVKGRFTISRDNAKNTVYLQMNSLKPEDTAVYYCNAVLRYGHGPYQKGDYWGQGTQVTVSS”, the “polyreactivity (PSR sort gate)” value is “high polyreactivity”.
With “QVQLVESGGGLVQAGGSLRLSCAASGFTFWHYAMGWYRQAPGKERELVAAITWDGGSTYYADSVKGRFTISRDNAKNTFYLQMQSLKPEDNAVYYCAKLFGGTYYEYDYWGQGTQVTVSS”, the “polyreactivity (PSR sort gate)” value was “low polyreactivity”.
Regarding “QVQLVESGGGLVQAGGSLRLSCAASGFTFWLYAMGWYRQATGKERELVAAIDWDGGTYYADSVKGRFTISRDNAKNTVYLQMNSLKPEDTAVYYCAARYRYYYTRYDYWGQGTQVTVSS”, the “polyreactivity (PSR sort gate)” value is “high polyreactivity”.
On to “QVQLVESGGGLVQAGGSLRLSCAASGFTFWRNAMGWYRQAPGKERELVAAISWRGGSTYYADSVKGRFTISRDNAKNTVYLQMNSLKPEDTAVYYCNALHWQSKELDYYWGQGTQVTVSS”, for which the “polyreactivity (PSR sort gate)” value was “high polyreactivity”.
“QVQLVESGGGLVQAGGSLRLSCAASGFTFWRYAMGWYIQAPGKERELVAAISYSGGRTYYADSVKGRFTISRDNAKNTVYLQMNSLKPEDTAVYYCAASRVTYGGPYRDDYDYWGQGTQVTVSS”: the “polyreactivity (PSR sort gate)” value is “high polyreactivity”.
The result for “QVQLVESGGGLVQAGGSLRLSCAASGFTFWRYAMGWYREAPGKERELVAAITGLGRTNYADSVKGRFTISRDNAKNTVYLQMNSLKPEDTADYYCNVVRVYRYDYWGQGTQVTVSS” reads “high polyreactivity”.
The result for “QVQLVESGGGLVQAGGSLRLSCAASGFTFWRYAMGWYRQAPGKEREFVAVISISSGTTYADSVKGRFTITRDNAKNTVYLQMNSLKPEDTAVYYCAAAIGVYYIEYRYLGTVEYWGQGTQVTVSS” reads “low polyreactivity”; that for “QVQLVESGGGLVQAGGSLRLSCAASGFTFWRYAMGWYRQAPGKERELVAAISRTGGRTYYADSVKGRFTISRDNAKNTVYLQMNSLKPEDTAVYYCAADWLYDYGEYYYWGQGTQVTVSS”, “high polyreactivity”.
The result for “QVQLVESGGGLVQAGGSLRLSCAASGFTFWRYAMGWYRQAPGKERELVAAITWSGGRTYYADSVKGRFTISRDNAKNTVYLQMNSLKPEDTAVYYCNVDAYGYRPYRYYYWGQGTQVTVSS” reads “high polyreactivity”; that for “QVQLVESGGGLVQAGGSLRLSCAASGFTFWTYAMGWYRQAPGKERELVAAIDSGGSTYYADSVKGRFTITRDNAKNTVYLQMNSLKPEDTAVYYCNAGPSVTSGYDYDYWGQGTQVTVSS”, “low polyreactivity”; that for “QVQLVESGGGLVQAGGSLRLSCAASGFTFWYYAMGWYRQAPGKERELVAAISSGSSTNYADSVKGRFTISRDNPKNTVYLQMNSLKPEDTAVDYCAADKYPSSPYVGDVDYWGQGTQVTVSS”, “high polyreactivity”.
With “QVQLVESGGGLVQAGGSLRLSCAASGFTFWYYAMGWYRQAPGKERELVAGIDSGGSTYYADSVKGRFTISRDNAKNTVYFQMNSLKPEETAVYYCAARPDQGLAYSPLPWYNYWGQGTQVTVSS”, the “polyreactivity (PSR sort gate)” value is recorded as “low polyreactivity”.
Turning to “QVQLVESGGGLVQAGGSLRLSCAASGFTFWYYAMGWYRQAPGKERELVASISASGGRTNYADSVKGRFTISRDNAKNTVYLQMNSLKPEDTAVYYCAACRVRYSYGYPYYYWGQGTQVTVSS”, the “polyreactivity (PSR sort gate)” value was “high polyreactivity”.
The result for “QVQLVESGGGLVQAGGSLRLSCAASGFTFWYYAMGWYRQAPGKERELVASISRTGGTTYYADSVKGRFTISRDNAKNTVYLQMNSLKPEDTAVYYCNARPKVYYREYDYWGQGTQVTVSS” reads “high polyreactivity”.
For “QVQLVESGGGLVQAGGSLRLSCAASGFTFYAYAMGWYRQAPGKERELVAAISGSGGRTYYADSVKGRFTISRDNAKNTVYLQMNSLKPEDTAVYYCAADRPGGSYDYWGQGTQVTVSS” the value was “high polyreactivity”; for “QVQLVESGGGLVQAGGSLRLSCAASGFTFYFYAMGWYRQAPGKERDLVAAINSGDSTYYADSVKGRFTISSDNEKNTVYLQMNSLKPEDTAVYYCSAAQFIQLRDYWGQGTQVTVSS”, “high polyreactivity”; for “QVQLVESGGGLVQAGGSLRLSCAASGFTFYGYAMGWYRQAPGKEREFVADISSRDGSTYYADSVKGRFTISRDNAKNTVYLQMNSLKPEDTAVYYCAADSGQYKWSDYDYWGQGTQVTVSS”, “low polyreactivity”.
The result for “QVQLVESGGGLVQAGGSLRLSCAASGFTFYGYAMGWYRQAPGKERELVAAISSSGGRTYYADSVKGRFTISRDNSKNTVYLQMNSLKPEDTAVYYCAADYTSRDYYYWGQGTQVTVSS” reads “high polyreactivity”.
